We go through one molecule from US20030165543A1 (LOMA LINDA UNIVERSITY, published 2003).

The target of this assay is bovine serum albumin (bovine, UniProt P02769 25-607). The assay is described as follows: GM1-ELISA binding assay.
Chain of bovine serum albumin (P02769 25-607 limits assumed): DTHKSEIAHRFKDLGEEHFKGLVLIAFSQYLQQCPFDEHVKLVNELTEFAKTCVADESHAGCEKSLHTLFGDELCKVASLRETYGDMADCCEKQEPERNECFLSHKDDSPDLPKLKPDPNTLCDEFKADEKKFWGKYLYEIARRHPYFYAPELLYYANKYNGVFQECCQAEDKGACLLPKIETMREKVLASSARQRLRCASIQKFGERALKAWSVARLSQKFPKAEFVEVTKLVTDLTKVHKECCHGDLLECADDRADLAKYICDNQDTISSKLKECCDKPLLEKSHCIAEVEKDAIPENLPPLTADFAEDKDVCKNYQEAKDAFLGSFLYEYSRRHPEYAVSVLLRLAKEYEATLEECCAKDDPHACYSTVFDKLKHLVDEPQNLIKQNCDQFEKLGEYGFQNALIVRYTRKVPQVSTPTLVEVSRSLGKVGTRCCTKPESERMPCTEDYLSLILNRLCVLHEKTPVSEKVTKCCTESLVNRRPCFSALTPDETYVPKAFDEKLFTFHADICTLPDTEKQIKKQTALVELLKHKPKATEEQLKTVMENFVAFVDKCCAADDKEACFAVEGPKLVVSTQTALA

B1: bacterial cholera toxin B subunit (CTB), pentameric (other)
chain: TPQNITDLCAEYHNTQIYTLNDKIFSYTESLAGKREMAIITFKNGAIFQVEVPGSQHIDSQKKAIERMKDTLRIAYLTEAKVEKLCVWNNKTPHAIAAISMAN
Take B1: the binding result is listed as “no binding”.
